{"source": "patent US20160199445A1", "about": "“USE OF ARPIN A NEW INHIBITOR OF THE ARP2/3 COMPLEX FOR THE DIAGNOSIS AND TREATMENT OF DISEASES” (CENTRE NATIONAL DE LA RECHERCHE SCIENTIFIQUE, priority 2013, published 2016)", "target": "Purified Arp2/3 complex", "assay": "fluorescence anisotropy, labelled ArpinA peptide titrated with purified Arp2/3 complex", "note": "No end group written: not given here. *: point of attachment. 5‑TAMRA = 5-carboxytetramethylrhodamine label, CN(C)c1ccc2c(-c3ccc(C(=O)*)cc3C(=O)[O-])c3ccc(=[N+](C)C)cc-3oc2c1"}
{"binder": "{5‑TAMRA}-EIREQGDGAEDEEWDD", "note": "[ArpinA peptide labelled with 5-TAMRA at the N-terminus]", "values": [{"measurement": "Kd", "result": 384, "unit": "nM"}]}
